The values that follow come from the supplement of paper PMC9233669.

Variants at the floor of the assay were thinned out.

For one data set, the system named is biotinyl-Phe-oxazolone. Nature of the data set: self-aminoacylation, catalytic enhancement (BFO) (fold over background); higher = more active; k-Seq, kA / k0A0; sequences stand for … in GGGAAUGGAUCCACAUCUACGAAUUC…UUCACUGCAGACUUGACGAAGCUG
The method in brief:
(§1)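 Working in 50 μL HEPES/NaCl/KCl/MgCl2/CaCl2 buffer with 5% acetonitrile at pH 6.9–7.0, mutagenized RNA pools (0.43 μM; 21-nt variable region) were reacted with 2–1250 μM of each biotinyl-aminoacyl-oxazolone for 90 minutes at room temperature. Streptavidin capture followed, with quantification by triplicate qPCR and Illumina sequencing. Catalytic enhancement is reported as median kA over the uncatalyzed rate, the low-activity peak of a bimodal Gaussian fit to the data.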

A further data set relates to biotinyl-Ile-oxazolone. Put plainly: self-aminoacylation, catalytic enhancement (BIO) (fold over background); higher = more active; k-Seq, kA / k0A0; sequences stand for … in GGGAAUGGAUCCACAUCUACGAAUUC…UUCACUGCAGACUUGACGAAGCUG
An outline of the steps: as §1

The test system of the next data set is biotinyl-Met-oxazolone. Put plainly: self-aminoacylation, catalytic enhancement (BMO) (fold over background); higher = more active; k-Seq, kA / k0A0; sequences stand for … in GGGAAUGGAUCCACAUCUACGAAUUC…UUCACUGCAGACUUGACGAAGCUG
An outline of the steps:
as §1

In a further data set the test system is biotinyl-Val-oxazolone. Put plainly: self-aminoacylation, catalytic enhancement (BVO) (fold over background); higher = more active; k-Seq, kA / k0A0; sequences stand for … in GGGAAUGGAUCCACAUCUACGAAUUC…UUCACUGCAGACUUGACGAAGCUG
An outline of the steps:
as §1

In another data set the test system is biotinyl-Leu-oxazolone. Nature of the data set: self-aminoacylation, catalytic enhancement (BLO) (fold over background); higher = more active; k-Seq, kA / k0A0; sequences stand for … in GGGAAUGGAUCCACAUCUACGAAUUC…UUCACUGCAGACUUGACGAAGCUG
An outline of the steps: as §1

A further data set concerns biotinyl-Trp-oxazolone. Nature of the data set: self-aminoacylation, catalytic enhancement (BWO) (fold over background); higher = more active; k-Seq, kA / k0A0; sequences stand for … in GGGAAUGGAUCCACAUCUACGAAUUC…UUCACUGCAGACUUGACGAAGCUG
An outline of the steps: as §1

Consider “CCACACUUCAAUCAAUUGGUC [Fam1B.1 aminoacylation ribozyme variant]”, for which the self-aminoacylation with biotinyl-Phe-oxazolone came out at 0.876; in the data set on biotinyl-Ile-oxazolone, 0.598; in the data set on biotinyl-Met-oxazolone it was 0.527; with biotinyl-Val-oxazolone it was 0.616; with biotinyl-Leu-oxazolone it was 0.545; in the data set on biotinyl-Trp-oxazolone, 0.719.
For the sequence “CCACACUUCAAGCAAUAGGAC [Fam1B.1 aminoacylation ribozyme variant]”, the self-aminoacylation worked out at 0.856 in the data set with biotinyl-Phe-oxazolone; 0.621 in the data set on biotinyl-Ile-oxazolone; 0.456 in the data set with biotinyl-Met-oxazolone; 0.537 with biotinyl-Val-oxazolone; 0.479 with biotinyl-Leu-oxazolone; 0.626 in the data set on biotinyl-Trp-oxazolone.
Take “AUUCACCUAGGUCAUCGCGUG [Fam2.2 aminoacylation ribozyme variant]”: the self-aminoacylation came out at 100 in the data set with biotinyl-Phe-oxazolone; 7.1 in the data set with biotinyl-Ile-oxazolone; 13 with biotinyl-Met-oxazolone; 7.35 in the data set on biotinyl-Val-oxazolone; 17.4 in the data set with biotinyl-Leu-oxazolone; 11.5 in the data set with biotinyl-Trp-oxazolone.
As to “CCACACUUCAAGCAAGCGUUC [Fam1B.1 aminoacylation ribozyme variant]”, the self-aminoacylation with biotinyl-Phe-oxazolone is 0.905; in the data set with biotinyl-Ile-oxazolone it was 0.689; with biotinyl-Met-oxazolone, 0.454; with biotinyl-Val-oxazolone, 0.728; with biotinyl-Leu-oxazolone, 0.516; in the data set on biotinyl-Trp-oxazolone, 0.492.
Regarding “CCACGCUUCAAGCAAUAGGUC [Fam1B.1 aminoacylation ribozyme variant]”, the self-aminoacylation in the data set on biotinyl-Phe-oxazolone came out at 0.752; with biotinyl-Ile-oxazolone, 0.51; with biotinyl-Met-oxazolone it was 0.597; with biotinyl-Val-oxazolone, 0.577; with biotinyl-Leu-oxazolone, 0.475; with biotinyl-Trp-oxazolone, 0.367.
Regarding “AAUAUCCUGGUCAUCGAGUGA [Fam2.1 aminoacylation ribozyme variant]”, the self-aminoacylation is 26.2 in the data set with biotinyl-Phe-oxazolone; 4.6 in the data set with biotinyl-Ile-oxazolone; 8.66 in the data set on biotinyl-Met-oxazolone; 4.34 with biotinyl-Val-oxazolone; 8.92 in the data set with biotinyl-Leu-oxazolone; 10.1 in the data set on biotinyl-Trp-oxazolone.
Regarding “AUUGACCUACGUCAUCGGGUG [Fam2.2 aminoacylation ribozyme variant]”, the self-aminoacylation in the data set with biotinyl-Phe-oxazolone amounted to 40.6; in the data set on biotinyl-Ile-oxazolone, 3.13; in the data set with biotinyl-Met-oxazolone it was 4.72; in the data set on biotinyl-Val-oxazolone it was 3.81; in the data set with biotinyl-Leu-oxazolone, 6.43; with biotinyl-Trp-oxazolone, 5.9.
Take “CCACACCUCAAGGAAUCGGUC [Fam1B.1 aminoacylation ribozyme variant]”: the self-aminoacylation is 0.875 in the data set on biotinyl-Phe-oxazolone; 1.34 in the data set on biotinyl-Ile-oxazolone; 1.02 in the data set with biotinyl-Met-oxazolone; 1.26 with biotinyl-Val-oxazolone; 1.34 in the data set with biotinyl-Leu-oxazolone; 1.32 in the data set on biotinyl-Trp-oxazolone.
“CCACAGUUCAAGCAAUGGGUC [Fam1B.1 aminoacylation ribozyme variant]”: the self-aminoacylation in the data set on biotinyl-Phe-oxazolone amounted to 0.542; in the data set on biotinyl-Ile-oxazolone it was 1.04; with biotinyl-Met-oxazolone, 1.03; in the data set on biotinyl-Val-oxazolone it was 1.05; in the data set on biotinyl-Leu-oxazolone, 0.763; with biotinyl-Trp-oxazolone, 0.726.
“AUUACCGUGGUCAUCGUGUGA [Fam2.1 aminoacylation ribozyme variant]”: the self-aminoacylation with biotinyl-Phe-oxazolone was 5.4; in the data set with biotinyl-Ile-oxazolone, 1.3; with biotinyl-Met-oxazolone it was 1.64; with biotinyl-Val-oxazolone, 1.25; in the data set on biotinyl-Leu-oxazolone it was 2.49; with biotinyl-Trp-oxazolone, 2.03.
Turning to “UAGUUUACUAAUAGUCGCAAG [Fam3.1 aminoacylation ribozyme variant]”, the self-aminoacylation in the data set on biotinyl-Phe-oxazolone is 2.86; with biotinyl-Ile-oxazolone, 1.45; with biotinyl-Met-oxazolone it was 1.41; in the data set with biotinyl-Val-oxazolone it was 1.48; with biotinyl-Leu-oxazolone, 1.36; in the data set with biotinyl-Trp-oxazolone it was 1.65.
“AUUCACCUAUGUCAGCGGGUG [Fam2.2 aminoacylation ribozyme variant]”: the self-aminoacylation came to 28.7 in the data set with biotinyl-Phe-oxazolone; 2.87 in the data set on biotinyl-Ile-oxazolone; 3.6 in the data set with biotinyl-Met-oxazolone; 2.33 in the data set on biotinyl-Val-oxazolone; 4.78 with biotinyl-Leu-oxazolone; 3.73 in the data set with biotinyl-Trp-oxazolone.
As to “CCACACUUCAAGCAAUCGGUU [Fam1B.1 aminoacylation ribozyme variant]”, the self-aminoacylation with biotinyl-Phe-oxazolone amounted to 9.59; in the data set with biotinyl-Ile-oxazolone, 1.35; in the data set with biotinyl-Met-oxazolone, 1.36; in the data set with biotinyl-Val-oxazolone, 1.59; in the data set with biotinyl-Leu-oxazolone, 1.38; in the data set with biotinyl-Trp-oxazolone, 7.61.
Regarding “GUUACCCUGGUCAUCAAGUGA [Fam2.1 aminoacylation ribozyme variant]”, the self-aminoacylation in the data set with biotinyl-Phe-oxazolone came to 11; in the data set on biotinyl-Ile-oxazolone, 2.37; in the data set on biotinyl-Met-oxazolone, 3.81; in the data set with biotinyl-Val-oxazolone, 2.08; in the data set with biotinyl-Leu-oxazolone it was 3.12; in the data set with biotinyl-Trp-oxazolone, 4.39.
As to “CCACACUUCAAAGAAUCGGUC [Fam1B.1 aminoacylation ribozyme variant]”, the self-aminoacylation with biotinyl-Phe-oxazolone turned out to be 12.1; in the data set on biotinyl-Ile-oxazolone, 0.988; in the data set on biotinyl-Met-oxazolone, 0.888; in the data set on biotinyl-Val-oxazolone, 0.955; with biotinyl-Leu-oxazolone, 1.17; with biotinyl-Trp-oxazolone, 9.57.
As for “AUUCACAUAGGUCAUCGGGUA [Fam2.2 aminoacylation ribozyme variant]”, the self-aminoacylation in the data set on biotinyl-Phe-oxazolone is 22.7; with biotinyl-Ile-oxazolone it was 2.24; in the data set on biotinyl-Met-oxazolone, 2.86; with biotinyl-Val-oxazolone it was 2.57; in the data set with biotinyl-Leu-oxazolone, 2.54; with biotinyl-Trp-oxazolone, 3.56.
In the case of “CCACUUCAGACAAUCGGUCUG [Fam1A.1 aminoacylation ribozyme variant]”, the self-aminoacylation is 1.67 in the data set with biotinyl-Phe-oxazolone; 1.62 with biotinyl-Ile-oxazolone; 1.66 with biotinyl-Met-oxazolone; 1.65 with biotinyl-Val-oxazolone; 1.33 with biotinyl-Leu-oxazolone; 1.71 in the data set with biotinyl-Trp-oxazolone.
Turning to “CUACUUAAAACUAUCGGUCUG [Fam1A.1 aminoacylation ribozyme variant]”, the self-aminoacylation with biotinyl-Phe-oxazolone turned out to be 0.83; in the data set with biotinyl-Ile-oxazolone it was 1.11; in the data set with biotinyl-Met-oxazolone it was 0.922; in the data set with biotinyl-Val-oxazolone, 1.06; in the data set with biotinyl-Leu-oxazolone it was 0.97; in the data set with biotinyl-Trp-oxazolone, 0.746.
With “AAGUUUGCUACUAGUCUCAAG [Fam3.1 aminoacylation ribozyme variant]”, the self-aminoacylation in the data set with biotinyl-Phe-oxazolone was 1.11; in the data set on biotinyl-Ile-oxazolone, 0.827; with biotinyl-Met-oxazolone, 0.914; in the data set on biotinyl-Val-oxazolone, 0.818; with biotinyl-Leu-oxazolone, 0.77; with biotinyl-Trp-oxazolone, 0.988.
As to “CUACAACAAACAAUCGGUCUG [Fam1A.1 aminoacylation ribozyme variant]”, the self-aminoacylation came out at 0.946 in the data set on biotinyl-Phe-oxazolone; 0.646 in the data set on biotinyl-Ile-oxazolone; 0.496 in the data set with biotinyl-Met-oxazolone; 0.642 in the data set on biotinyl-Val-oxazolone; 0.743 with biotinyl-Leu-oxazolone; 0.491 in the data set with biotinyl-Trp-oxazolone.
Consider “AUGACGCUGGUCAUCGAGUGA [Fam2.1 aminoacylation ribozyme variant]”, for which the self-aminoacylation with biotinyl-Phe-oxazolone stood at 36.8; in the data set with biotinyl-Ile-oxazolone, 3.6; in the data set with biotinyl-Met-oxazolone, 6.65; with biotinyl-Val-oxazolone, 3.4; in the data set on biotinyl-Leu-oxazolone it was 5.8; in the data set on biotinyl-Trp-oxazolone it was 7.12.
For the sequence “AUUACCCUUGUCAUCCAGUGA [Fam2.1 aminoacylation ribozyme variant]”, the self-aminoacylation in the data set on biotinyl-Phe-oxazolone came to 9.92; in the data set with biotinyl-Ile-oxazolone, 2.21; in the data set on biotinyl-Met-oxazolone, 3.41; in the data set with biotinyl-Val-oxazolone, 2.25; in the data set on biotinyl-Leu-oxazolone it was 3.44; in the data set with biotinyl-Trp-oxazolone it was 3.96.
In the case of “CCACACUCCAAACAAUCGGUC [Fam1B.1 aminoacylation ribozyme variant]”, the self-aminoacylation with biotinyl-Phe-oxazolone turned out to be 10.9; with biotinyl-Ile-oxazolone, 0.982; in the data set on biotinyl-Met-oxazolone it was 0.917; with biotinyl-Val-oxazolone, 1.31; in the data set on biotinyl-Leu-oxazolone, 1.09; with biotinyl-Trp-oxazolone it was 6.11.
With “AUUUCGCUGGUCAUCGAGUGA [Fam2.1 aminoacylation ribozyme variant]”, the self-aminoacylation with biotinyl-Phe-oxazolone was determined as 28.5; in the data set on biotinyl-Ile-oxazolone it was 2.84; with biotinyl-Met-oxazolone, 4.64; in the data set on biotinyl-Val-oxazolone it was 3.16; in the data set with biotinyl-Leu-oxazolone, 5.38; in the data set on biotinyl-Trp-oxazolone, 5.72.
As to “ACUACCCUGGUGAUCGAGUGA [Fam2.1 aminoacylation ribozyme variant]”, the self-aminoacylation is 28 in the data set with biotinyl-Phe-oxazolone; 4.03 in the data set on biotinyl-Ile-oxazolone; 6.46 in the data set on biotinyl-Met-oxazolone; 3.6 in the data set on biotinyl-Val-oxazolone; 7.61 with biotinyl-Leu-oxazolone; 9.48 with biotinyl-Trp-oxazolone.
